The values below come from the supplement of paper PMC9112550, “Optimization of the antimicrobial peptide Bac7 by deep mutational scanning” (BMC Biology, 2022).
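Further: peptides expressed intracellularly from a pBAD plasmid library in pooled LB shake-flask culture, induced with 0.3% L-arabinose, DNA abundance read by NGS, three biological replicates, DESeq2 with apeglm shrinkage.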

The series concerns Escherichia coli TOP10. Briefly: shrunken log2 fold change of peptide-encoding DNA abundance (4.5 h post-induction vs induction); higher = less antimicrobial activity (less host growth inhibition). Conditions: time post-induction: 4.5 h; library: site-saturation at positions 5, 18, 19, 20.
Turning to RRIRRRPPRLPRPRPRPHMWPRP, the “shrunken log2 fold change” value is -0.0704.
As for RRIRIRPPRLPRPRPRPHHTPRP, the figure is -0.677.
As for RRIRDRPPRLPRPRPRPYNGPRP, the figure is -0.0516.
As for RRIRLRPPRLPRPRPRPWNAPRP, the figure is -0.249; as for RRIRMRPPRLPRPRPRPHMQPRP, -0.122; as for RRIRNRPPRLPRPRPRPPFSPRP, 0.032.
As to RRIRGRPPRLPRPRPRPINYPRP, the “shrunken log2 fold change” value stood at 0.000824.
As for RRIRQRPPRLPRPRPRPIVHPRP, the figure is -0.265; as for RRIRWRPPRLPRPRPRPRNHPRP, -0.141.
RRIRCRPPRLPRPRPRPDAEPRP: the “shrunken log2 fold change” value came to 1.03.
As to RRIRGRPPRLPRPRPRPRADPRP, the “shrunken log2 fold change” value is 1.17.
As for RRIRDRPPRLPRPRPRPWTHPRP, the figure is -0.291.
In the case of RRIRKRPPRLPRPRPRPKWNPRP it was 0.392; in that of RRIRHRPPRLPRPRPRPEVHPRP, 0.16.
In the case of RRIRMRPPRLPRPRPRPGQSPRP it was 1.23; in that of RRIRHRPPRLPRPRPRPANLPRP, -0.00674; in that of RRIRIRPPRLPRPRPRPEPIPRP, 0.185.
For the sequence RRIRLRPPRLPRPRPRPHMYPRP, the “shrunken log2 fold change” value is -1.07.
For the sequence RRIRHRPPRLPRPRPRPRKCPRP, the “shrunken log2 fold change” value is -0.116.
On to RRIRDRPPRLPRPRPRPGVDPRP, for which the “shrunken log2 fold change” value was determined as 1.36.
As for RRIRERPPRLPRPRPRPCKCPRP, the figure is -0.01; as for RRIRIRPPRLPRPRPRPKNAPRP, -0.107.
In the case of RRIRLRPPRLPRPRPRPCEAPRP it was 0.125; in that of RRIRNRPPRLPRPRPRPWVWPRP, -0.115; in that of RRIRWRPPRLPRPRPRPNPGPRP, 0.108.
Consider RRIRNRPPRLPRPRPRPPEPPRP, for which the “shrunken log2 fold change” value is 0.184.
Take RRIRDRPPRLPRPRPRPSLTPRP: the “shrunken log2 fold change” value amounted to 0.154.
With RRIRWRPPRLPRPRPRPVFVPRP, the “shrunken log2 fold change” value is -0.0738.
As for RRIRWRPPRLPRPRPRPRHIPRP, the figure is -0.0148; as for RRIRCRPPRLPRPRPRPNMMPRP, -0.475.
As to RRIRGRPPRLPRPRPRPMITPRP, the “shrunken log2 fold change” value was 0.24.
As for RRIRSRPPRLPRPRPRPIRIPRP, the figure is -0.405; as for RRIRMRPPRLPRPRPRPYCQPRP, -0.0783.
In the case of RRIRSRPPRLPRPRPRPFFYPRP it was -0.17; in that of RRIRSRPPRLPRPRPRPWCFPRP, -0.715; in that of RRIRVRPPRLPRPRPRPWLHPRP, 0.215.
In the case of RRIRPRPPRLPRPRPRPGWFPRP it was 0.238.
Regarding RRIRLRPPRLPRPRPRPDPNPRP, the “shrunken log2 fold change” value is 0.168.
In the case of RRIRSRPPRLPRPRPRPNPGPRP it was -0.17; in that of RRIRYRPPRLPRPRPRPQNLPRP, -0.0535.
RRIRPRPPRLPRPRPRPMYFPRP: the “shrunken log2 fold change” value is -0.0431.
For the sequence RRIRNRPPRLPRPRPRPSWSPRP, the “shrunken log2 fold change” value was -0.0724.
In the case of RRIRVRPPRLPRPRPRPLFSPRP it was -0.261; in that of RRIRWRPPRLPRPRPRPSVWPRP, 0.218.
For RRIRPRPPRLPRPRPRPWWNPRP, the “shrunken log2 fold change” value is -0.227.
Take RRIRCRPPRLPRPRPRPCPHPRP: the “shrunken log2 fold change” value is -0.235.
Consider RRIRGRPPRLPRPRPRPLWRPRP, for which the “shrunken log2 fold change” value was 0.625.
As for RRIRSRPPRLPRPRPRPVQWPRP, the figure is 0.175; as for RRIRLRPPRLPRPRPRPWMLPRP, -0.0153.
For RRIRERPPRLPRPRPRPMTNPRP, the “shrunken log2 fold change” value was -0.112.
Turning to RRIRYRPPRLPRPRPRPLLKPRP, the “shrunken log2 fold change” value was -0.634.
In the case of RRIRERPPRLPRPRPRPFLLPRP it was -0.688; in that of RRIRFRPPRLPRPRPRPVTCPRP, -0.491.
In the case of RRIRWRPPRLPRPRPRPTMVPRP it was -0.299; in that of RRIRSRPPRLPRPRPRPKGPPRP, -0.00375.
As for RRIRYRPPRLPRPRPRPNWWPRP, the “shrunken log2 fold change” value is -0.00469.
In the case of RRIRWRPPRLPRPRPRPDVTPRP it was 0.0084; in that of RRIRPRPPRLPRPRPRPSTEPRP, -0.0218.
RRIRKRPPRLPRPRPRPWWAPRP: the “shrunken log2 fold change” value was -0.287.
Take RRIRGRPPRLPRPRPRPHRYPRP: the “shrunken log2 fold change” value worked out at 0.0948.
On to RRIRPRPPRLPRPRPRPFQQPRP, for which the “shrunken log2 fold change” value was -0.000989.
In the case of RRIRMRPPRLPRPRPRPRFAPRP it was 0.728.
For RRIRWRPPRLPRPRPRPFMLPRP, the “shrunken log2 fold change” value was -0.174.
As for RRIRPRPPRLPRPRPRPYAMPRP, the figure is -0.265; as for RRIRVRPPRLPRPRPRPRDIPRP, -0.0591; as for RRIRTRPPRLPRPRPRPYLRPRP, -0.163.
Consider RRIRTRPPRLPRPRPRPSPIPRP, for which the “shrunken log2 fold change” value is -0.733.
As for RRIRERPPRLPRPRPRPRWVPRP, the figure is -0.0454; as for RRIRLRPPRLPRPRPRPQMNPRP, -0.507; as for RRIRTRPPRLPRPRPRPQMTPRP, 0.0824.
RRIRMRPPRLPRPRPRPRDDPRP: the “shrunken log2 fold change” value came out at 0.202.
Turning to RRIRFRPPRLPRPRPRPGHNPRP, the “shrunken log2 fold change” value is -0.409.
For RRIRCRPPRLPRPRPRPDNQPRP, the “shrunken log2 fold change” value is -0.696.
In the case of RRIRGRPPRLPRPRPRPMDLPRP it was 0.241; in that of RRIRGRPPRLPRPRPRPDGSPRP, 0.85; in that of RRIRERPPRLPRPRPRPSRGPRP, 0.49.
For RRIRVRPPRLPRPRPRPISFPRP, the “shrunken log2 fold change” value was found to be 0.0233.
Turning to RRIRWRPPRLPRPRPRPEITPRP, the “shrunken log2 fold change” value came out at 0.437.
For RRIRDRPPRLPRPRPRPKCTPRP, the “shrunken log2 fold change” value is 0.0239.
In the case of RRIRCRPPRLPRPRPRPPSTPRP it was -0.0239; in that of RRIRERPPRLPRPRPRPCNTPRP, -0.118.
In the case of RRIRARPPRLPRPRPRPRVEPRP it was 0.187.
As for RRIRVRPPRLPRPRPRPSDRPRP, the figure is 0.194; as for RRIRQRPPRLPRPRPRPVFAPRP, 0.164; as for RRIRFRPPRLPRPRPRPKVIPRP, -0.212.
For RRIRLRPPRLPRPRPRPDGFPRP, the “shrunken log2 fold change” value came out at 0.052.
Regarding RRIRVRPPRLPRPRPRPGNSPRP, the “shrunken log2 fold change” value is 0.0126.
On to RRIRRRPPRLPRPRPRPVKEPRP, for which the “shrunken log2 fold change” value is -0.128.
As for RRIRKRPPRLPRPRPRPGRPPRP, the “shrunken log2 fold change” value was 0.857.
In the case of RRIRGRPPRLPRPRPRPWWEPRP it was 0.0256.
As to RRIRKRPPRLPRPRPRPCFDPRP, the “shrunken log2 fold change” value is 0.0357.
For RRIRTRPPRLPRPRPRPDKRPRP, the “shrunken log2 fold change” value is -0.0389.
As for RRIRSRPPRLPRPRPRPYKYPRP, the “shrunken log2 fold change” value was -0.637.
As for RRIRPRPPRLPRPRPRPSSWPRP, the figure is 0.104; as for RRIRPRPPRLPRPRPRPQSRPRP, 0.161; as for RRIRHRPPRLPRPRPRPLMVPRP, -0.474.
Take RRIRCRPPRLPRPRPRPQGLPRP: the “shrunken log2 fold change” value is 0.161.
As for RRIRGRPPRLPRPRPRPHTTPRP, the “shrunken log2 fold change” value worked out at 0.333.
As to RRIRRRPPRLPRPRPRPWNAPRP, the “shrunken log2 fold change” value was -0.0963.
Take RRIRLRPPRLPRPRPRPLDEPRP: the “shrunken log2 fold change” value was -0.0999.
In the case of RRIRQRPPRLPRPRPRPSQLPRP, the “shrunken log2 fold change” value was 0.0128.
In the case of RRIRGRPPRLPRPRPRPNFEPRP it was 1.87; in that of RRIRHRPPRLPRPRPRPLCFPRP, -0.243.
In the case of RRIRHRPPRLPRPRPRPETWPRP it was -0.238.
In the case of RRIRKRPPRLPRPRPRPKAPPRP it was 0.62; in that of RRIRIRPPRLPRPRPRPKMMPRP, -0.596; in that of RRIRIRPPRLPRPRPRPKGAPRP, 0.36.
As to RRIRIRPPRLPRPRPRPFFPPRP, the “shrunken log2 fold change” value is -0.264.
As for RRIRGRPPRLPRPRPRPANRPRP, the figure is 0.0838.
Consider RRIRHRPPRLPRPRPRPQCIPRP, for which the “shrunken log2 fold change” value was -0.235.
As for RRIRIRPPRLPRPRPRPLCWPRP, the figure is -0.0614; as for RRIRNRPPRLPRPRPRPAMSPRP, -0.137; as for RRIRERPPRLPRPRPRPAANPRP, 0.0774.
For the sequence RRIRHRPPRLPRPRPRPPKIPRP, the “shrunken log2 fold change” value was determined as 0.282.
As for RRIRTRPPRLPRPRPRPWKFPRP, the figure is -0.0178; as for RRIRIRPPRLPRPRPRPDAVPRP, 0.0396.
As for RRIRCRPPRLPRPRPRPNQTPRP, the figure is -0.185; as for RRIRGRPPRLPRPRPRPMMMPRP, 0.574; as for RRIRLRPPRLPRPRPRPSKCPRP, -0.0487.
For RRIRGRPPRLPRPRPRPVMYPRP, the “shrunken log2 fold change” value was determined as 0.237.
Consider RRIRKRPPRLPRPRPRPMIEPRP, for which the “shrunken log2 fold change” value amounted to 0.0881.
In the case of RRIRSRPPRLPRPRPRPKDPPRP it was 0.226.
As for RRIRDRPPRLPRPRPRPKHVPRP, the figure is 0.139; as for RRIRNRPPRLPRPRPRPDHFPRP, -0.0062; as for RRIRYRPPRLPRPRPRPNIRPRP, 0.0146.
